The values that follow come from patent publication USRE50282 (KAGOSHIMA UNIVERSITY, dated 2025).

The target in one test is T1, human serum albumin (human, UniProt P02768 25-609).
T1 construct: also called HSA; HAS
The experiment in a line: covalent labeling reaction, SDS-PAGE and Western blotting with SA-conjugated HRP.

For the next test, the target named is T2, bovine serum albumin (bovine, UniProt P02769 25-607).
T2 construct: also called BSA
The experiment in a line: ELISA, BSA used as blocking agent, biotinylated peptide detected with SA-HRP. For orientation: In an ELISA, binding on a coated surface is turned into a signal by an enzyme label.

The target in a further test is T3, human IgG Fc (human, UniProt P01857-1 108-330 = IgG part).
T3 construct: domain: Fc; also called human IgG1 Fc
The experiment in a line: X-ray crystallography of the Fc/IgG-binding peptide conjugate.

Bridges are numbered along the chain shown (N, C = ends). Primed or numbered codes have the meaning given here. Where no end group is shown, it is not given here. The star is where a group is joined. DSS = disuccinimidyl suberate, reactive NHS group, O=C(CCCCCCC(=O)*)ON1C(=O)CCC1=O; DSG = disuccinimidyl glutarate, reactive NHS group, O=C(CCCC(=O)*)ON1C(=O)CCC1=O; Biotin = O=C1N[C@H]2[C@H](CS[C@H]2CCCCC(=O)*)N1; PEG4′ = not defined here

T2 sequence (P02769 25-607 limits assumed): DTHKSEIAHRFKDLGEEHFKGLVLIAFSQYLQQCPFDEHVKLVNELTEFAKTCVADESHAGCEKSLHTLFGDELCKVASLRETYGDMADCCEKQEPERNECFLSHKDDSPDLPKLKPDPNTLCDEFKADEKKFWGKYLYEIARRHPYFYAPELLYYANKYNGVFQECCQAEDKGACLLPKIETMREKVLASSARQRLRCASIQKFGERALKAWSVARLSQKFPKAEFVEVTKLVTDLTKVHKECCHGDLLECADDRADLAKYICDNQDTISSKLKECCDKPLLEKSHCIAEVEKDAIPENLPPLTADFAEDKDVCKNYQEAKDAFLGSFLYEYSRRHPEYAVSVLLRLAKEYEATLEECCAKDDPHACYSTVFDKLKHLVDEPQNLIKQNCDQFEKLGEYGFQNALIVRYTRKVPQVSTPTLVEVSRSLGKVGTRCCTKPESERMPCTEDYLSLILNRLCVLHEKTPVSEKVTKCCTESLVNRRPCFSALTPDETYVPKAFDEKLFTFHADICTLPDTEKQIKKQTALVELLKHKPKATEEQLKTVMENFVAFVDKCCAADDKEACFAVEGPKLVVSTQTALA

B1: N-terminally biotin-PEG4-added IgG-binding peptide (Type I(R8K)) modified with DSS (peptide)
peptide: {Biotin-PEG4′}-GDDCAYHK(DSS)GELVWCTFH-NH2
modifications: disulfide 4-14
notes: also called DSS R8K
For the molecule B1, the binding result in the test with human serum albumin is reported as “no binding”; in the test with bovine serum albumin it was “no binding (tested: molar ratio up to 10)”.

B2: N-terminally biotin-PEG4-added IgG-binding peptide (Type I(R8K)) modified with DSG (peptide)
peptide: {Biotin-PEG4′}-GDDCAYHK(DSG)GELVWCTFH-NH2
modifications: disulfide 4-14
notes: also called labeled reagent peptide
Turning to B2, in the test with human serum albumin, the binding result is given as “no binding”.

B3: cyclic homocysteine peptide G(HC)DCAYHRGELVWCT(HC)H-NH2 (peptide)
peptide: GXDCAYHRGELVWCTXH-NH2
modifications: disulfide 4-14, 2-16; not fully specified (residues 2, 16); printed as G(HC)DCAYHRGELVWCT(HC)H-NH2
For B3, in the test with human IgG Fc, the binding result is on record as “binds”.
